Measurements from patent US20250339531A1, “DUX4 POLYPEPTIDES AND NUCLEIC ACIDS FOR TREATING INFLAMMATORY AND AUTOIMMUNE CONDITIONS” (Fred Hutchinson Cancer Center, priority 2021, published 2025).

Test system: proteins that co-immunoprecipitated with DUX4-CTD constructs expressed in MB135 myoblasts
Assay: LC-MS of proteins co-immunoprecipitated with DUX4-CTD (Table 1) and western validation
Format: binding, human
Design: key to 4. mL1dL2 + Dox + IFNG / 4. + IFNG mix / 4. longCTD + Dox + IFNG / 3. + IFNg + Dox longCTD / 3. + Dox longCTD / 3. + IFNG longCTD: peptide-spectrum matches (PSMs) per protein
Conditions: for 4. longCTD + Dox + IFNG: LC-MS counts of the listed protein co-immunoprecipitated with DUX4-CTD bait longCTD, experiment 4, Dox + IFNG; for 3. + Dox longCTD / 3. + IFNg + Dox longCTD: bait longCTD; for 3. + Dox longCTD: experiment 3, Dox only; for 3. + IFNg + Dox longCTD: experiment 3, IFNg + Dox; for SUM of PSMS: sum over all samples
Summary of the method: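 Two independent experiments compared uninduced, doxycycline and doxycycline+IFNG MB135iDUX4-CTD (plus MB135iDUX4mL1dL2) myoblasts. Anti-FLAG pulldowns (3 h, 4 °C) were eluted in LDS buffer for western validation or with FLAG peptide for trypsin digestion and Orbitrap LC-MS; hits needed ≥2 PSMs in both experiments, ranked by total PSMs.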

Row | Molecule | 4. longCTD + Dox + IFNG | 3. + Dox longCTD | 3. + IFNg + Dox longCTD | SUM of PSMS
1 | O95782 (protein, UniProt O95782 1-977, looked up, full-length) MPAVSKGDGMRGLAVFISDIRNCKSKEAEIKRINKELANIRSKFKGDKALDGYSKKKYVCKLLFIFLLGHDIDFGHMEAVNLLSSNKYTEKQIGYLFISVLVNSNSELIRLINNAIKNDLASRNPTFMCLALHCIANVGSREMGEAFAADIPRILVAGDSMDSVKQSAALCLLRLYKASPDLVPMGEWTARVVHLLNDQHMGVVTAAVSLITCLCKKNPDDFKTCVSLAVSRLSRIVSSASTDLQDYTYYFVPAPWLSVKLLRLLQCYPPPEDAAVKGRLVECLETVLNKAQEPPKSKKVQHSNAKNAILFETISLIIHYDSEPNLLVRACNQLGQFLQHRETNLRYLALESMCTLASSEFSHEAVKTHIDTVINALKTERDVSVRQRAADLLYAMCDRSNAKQIVSEMLRYLETADYAIREEIVLKVAILAEKYAVDYSWYVDTILNLIRIAGDYVSEEVWYRVLQIVTNRDDVQGYAAKTVFEALQAPACHENMVKVGGYILGEFGNLIAGDPRSSPPVQFSLLHSKFHLCSVATRALLLSTYIKFINLFPETKATIQGVLRAGSQLRNADVELQQRAVEYLTLSSVASTDVLATVLEEMPPFPERESSILAKLKRKKGPGAGSALDDGRRDPSSNDINGGMEPTPSTVSTPSPSADLLGLRAAPPPAAPPASAGAGNLLVDVFDGPAAQPSLGPTPEEAFLSELEPPAPESPMALLADPAPAADPGPEDIGPPIPEADELLNKFVCKNNGVLFENQLLQIGVKSEFRQNLGRMYLFYGNKTSVQFQNFSPTVVHPGDLQTQLAVQTKRVAAQVDGGAQVQQVLNIECLRDFLTPPLLSVRFRYGGAPQALTLKLPVTINKFFQPTEMAAQDFFQRWKQLSLPQQEAQKIFKANHPMDAEVTKAKLLGFGSALLDNVDPNPENFVGAGIIQTKALQVGCLLRLEPNAQAQMYRLTLRTSKEPVSRHLCELLAQQF | 2 | 10 | 31 | 48
2 | Q00325 (protein, UniProt Q00325 1-362, looked up, full-length) MFSSVAHLARANPFNTPHLQLVHDGLGDLRSSSPGPTGQPRRPRNLAAAAVEEQYSCDYGSGRFFILCGLGGIISCGTTHTALVPLDLVKCRMQVDPQKYKGIFNGFSVTLKEDGVRGLAKGWAPTFLGYSMQGLCKFGFYEVFKVLYSNMLGEENTYLWRTSLYLAASASAEFFADIALAPMEAAKVRIQTQPGYANTLRDAAPKMYKEEGLKAFYKGVAPLWMRQIPYTMMKFACFERTVEALYKFVVPKPRSECSKPEQLVVTFVAGYIAGVFCAIVSHPADSVVSVLNKEKGSSASLVLKRLGFKGVWKGLFARIIMIGTLTALQWFIYDSVKVYFRLPRPPPPEMPESLKKKLGLTQ | 2 | – | 1 | 8
3 | O00469 (protein, UniProt O00469 1-737, looked up, full-length) MGGCTVKPQLLLLALVLHPWNPCLGADSEKPSSIPTDKLLVITVATKESDGFHRFMQSAKYFNYTVKVLGQGEEWRGGDGINSIGGGQKVRLMKEVMEHYADQDDLVVMFTECFDVIFAGGPEEVLKKFQKANHKVVFAADGILWPDKRLADKYPVVHIGKRYLNSGGFIGYAPYVNRIVQQWNLQDNDDDQLFYTKVYIDPLKREAINITLDHKCKIFQTLNGAVDEVVLKFENGKARAKNTFYETLPVAINGNGPTKILLNYFGNYVPNSWTQDNGCTLCEFDTVDLSAVDVHPNVSIGVFIEQPTPFLPRFLDILLTLDYPKEALKLFIHNKEVYHEKDIKVFFDKAKHEIKTIKIVGPEENLSQAEARNMGMDFCRQDEKCDYYFSVDADVVLTNPRTLKILIEQNRKIIAPLVTRHGKLWSNFWGALSPDGYYARSEDYVDIVQGNRVGVWNVPYMANVYLIKGKTLRSEMNERNYFVRDKLDPDMALCRNAREMGVFMYISNRHEFGRLLSTANYNTSHYNNDLWQIFENPVDWKEKYINRDYSKIFTENIVEQPCPDVFWFPIFSEKACDELVEEMEHYGKWSGGKHHDSRISGGYENVPTDDIHMKQVDLENVWLHFIREFIAPVTLKVFAGYYTKGFALLNFVVKYSPERQRSLRPHHDASTFTINIALNNVGEDFQGGGCKFLRYNCSIESPRKGWSFMHPGRLTHLHEGLPVKNGTRYIAVSFIDP | 7 | – | 3 | 25
4 | P06702 (protein, UniProt P06702 1-114, looked up, full-length) MTCKMSQLERNIETIINTFHQYSVKLGHPDTLNQGEFKELVRKDLQNFLKKENKNEKVIEHIMEDLDTNADKQLSFEEFIMLMARLTWASHEKMHEGDEGPGHHHKPGLGEGTP | – | 1 | 1 | 4
5 | P05141 (protein, UniProt P05141 1-298, looked up, full-length) MTDAAVSFAKDFLAGGVAAAISKTAVAPIERVKLLLQVQHASKQITADKQYKGIIDCVVRIPKEQGVLSFWRGNLANVIRYFPTQALNFAFKDKYKQIFLGGVDKRTQFWLYFAGNLASGGAAGATSLCFVYPLDFARTRLAADVGKAGAEREFRGLGDCLVKIYKSDGIKGLYQGFNVSVQGIIIYRAAYFGIYDTAKGMLPDPKNTHIVISWMIAQTVTAVAGLTSYPFDTVRRRMMMQSGRKGTDIMYTGTLDCWRKIARDEGGKAFFKGAWSNVLRGMGGAFVLVLYDEIKKYT | 6 | – | 3 | 9
6 | Q96MG2 (protein, UniProt Q96MG2 1-331, looked up, full-length) MSMTTRAWEELDGGLGSCQALEDHSALAETQEDRASATPRLADSGSVPHDSQVAEGPSVDTRPKKMEKEPAARGTPGTGKERLKAGASPRSVPARKKAQTAPPLQPPPPPPALSEELPWGDLSLNKCLVLASLVALLGSAFQLCRDAVPGEAALQARVPEPWVPPSSAPREPSSPLPKFEAQAPPSAPPAPRAEAEVRPKIPGSREAAENDEEEPGEATGEAVREDRVTLADRGPKERPRREGKPRKEKPRKEERPKKERPRKEERPRAAREPREALPQRWESREGGHRPWARDSRDAEPRKKQAWVSPRRPDEEQRPGSRQKLRAGKGRD | 3 | 4 | 10 | 18
7 | O43865 (protein, UniProt O43865 1-530, looked up, full-length) MSMPDAMPLPGVGEELKQAKEIEDAEKYSFMATVTKAPKKQIQFADDMQEFTKFPTKTGRRSLSRSISQSSTDSYSSAASYTDSSDDEVSPREKQQTNSKGSSNFCVKNIKQAEFGRREIEIAEQDMSALISLRKRAQGEKPLAGAKIVGCTHITAQTAVLIETLCALGAQCRWSACNIYSTQNEVAAALAEAGVAVFAWKGESEDDFWWCIDRCVNMDGWQANMILDDGGDLTHWVYKKYPNVFKKIRGIVEESVTGVHRLYQLSKAGKLCVPAMNVNDSVTKQKFDNLYCCRESILDGLKRTTDVMFGGKQVVVCGYGEVGKGCCAALKALGAIVYITEIDPICALQACMDGFRVVKLNEVIRQVDVVITCTGNKNVVTREHLDRMKNSCIVCNMGHSNTEIDVTSLRTPELTWERVRSQVDHVIWPDGKRVVLLAEGRLLNLSCSTVPTFVLSITATTQALALIELYNAPEGRYKQDVYLLPKKMDEYVASLHLPSFDAHLTELTDDQAKYLGLNKNGPFKPNYYRY | – | 7 | 11 | 19
8 | P25705 (protein, UniProt P25705 1-553, looked up, full-length) MLSVRVAAAVVRALPRRAGLVSRNALGSSFIAARNFHASNTHLQKTGTAEMSSILEERILGADTSVDLEETGRVLSIGDGIARVHGLRNVQAEEMVEFSSGLKGMSLNLEPDNVGVVVFGNDKLIKEGDIVKRTGAIVDVPVGEELLGRVVDALGNAIDGKGPIGSKTRRRVGLKAPGIIPRISVREPMQTGIKAVDSLVPIGRGQRELIIGDRQTGKTSIAIDTIINQKRFNDGSDEKKKLYCIYVAIGQKRSTVAQLVKRLTDADAMKYTIVVSATASDAAPLQYLAPYSGCSMGEYFRDNGKHALIIYDDLSKQAVAYRQMSLLLRRPPGREAYPGDVFYLHSRLLERAAKMNDAFGGGSLTALPVIETQAGDVSAYIPTNVISITDGQIFLETELFYKGIRPAINVGLSVSRVGSAAQTRAMKQVAGTMKLELAQYREVAAFAQFGSDLDAATQQLLSRGVRLTELLKQGQYSPMAIEEQVAVIYAGVRGYLDKLEPSKITKFENAFLSHVVSQHQALLGTIRADGKISEQSDAKLKEIVTNFLAGFEA | 4 | 1 | 2 | 17
9 | A0A087WW87 (protein, UniProt A0A087WW87 1-121, looked up, full-length) MRLPAQLLGLLMLWVPGSSEDIVMTQTPLSLPVTPGEPASISCRSSQSLLDSDDGNTYLDWYLQKPGQSPQLLIYTLSYRASGVPDRFSGSGSGTDFTLKISRVEAEDVGVYYCMQRIEFP | 5 | 2 | 2 | 15
10 | O43175 (protein, UniProt O43175 1-533, looked up, full-length) MAFANLRKVLISDSLDPCCRKILQDGGLQVVEKQNLSKEELIAELQDCEGLIVRSATKVTADVINAAEKLQVVGRAGTGVDNVDLEAATRKGILVMNTPNGNSLSAAELTCGMIMCLARQIPQATASMKDGKWERKKFMGTELNGKTLGILGLGRIGREVATRMQSFGMKTIGYDPIISPEVSASFGVQQLPLEEIWPLCDFITVHTPLLPSTTGLLNDNTFAQCKKGVRVVNCARGGIVDEGALLRALQSGQCAGAALDVFTEEPPRDRALVDHENVISCPHLGASTKEAQSRCGEEIAVQFVDMVKGKSLTGVVNAQALTSAFSPHTKPWIGLAEALGTLMRAWAGSPKGTIQVITQGTSLKNAGNCLSPAVIVGLLKEASKQADVNLVNAKLLVKEAGLNVTTSHSPAAPGEQGFGECLLAVALAGAPYQAVGLVQGTTPVLQGLNGAVFRPEVPLRRDLPLLLFRTQTSDPAMLPTMIGLLAEAGVRLLSYQTSLVSDGETWHVMGISSLLPSLEAWKQHVTEAFQFHF | 1 | 1 | 3 | 6
